# Data taken from the DeepSol protein solubility set.
# Assay: soluble on expression in E. coli; label from the status in PepcDB or PDB records
row,Sequence,soluble on expression in E. coli
1,MGSDKIHHHHHHMTKRAVVAGINDYRNWNSVGFGNLSWCLTDAQSFAEDVLVHGRGFRPDDITVLLDRDATRTNILEHLRRLLARADLGDVICLYFSGHGDRAQVPGTPSEWHETIVPYDGAAMISDHEINALIAGLEFNRLNLTLVLDSCHSGGVYDPAPPQGSKVAQWGEDKLGALVSTCKTILPTICAQTVDPFVNNIQAILRAVDSATMTVDGAKDTAETAKATLFSACDFDETAKENPTLRHGFMTKALLDTVTQSAFKMPNRLLASDLRGKVAAFVSQFGTSQQTPCLRGRPVRQDEDFLTEWTFSI,not soluble
2,MGSDKIHHHHHHEKKDKKENDTSAAQATETDCTAAELVTTEPEAEITISEMIDQRIKEEGKIMMYRMHFGPSKTPLEITEDLNVNIISYDGKELIDYGNSSNRRGETRLGDIIHNKVDYSTYDIGAYGGSWKRHRRVSGGDEKYVEEEGYVQREITTDDSGNNTQMETLYLYSKGTLYTREEGSEVWNQTEKNDNLPVVAFGTFERIKLDGKTYMTFCVRDDLNLIKYIIIPDNKFTENKTVVYDTPGTEGTTVNTVDYLKEYQAVPKEELEQMIVFPGSKKAESSQAAD,not soluble
3,MAHHHHHHMQETQELRCATTQMAPAVIFPLPPPLRGSYIDRKPTAASFNEHHATASFRHHMIASADVSHRPRHFYFASGTRNDTGTRSVKEGERKQLKQQTNVEVDSVAYGDQLDELSARWAAKFYGQVTFGPRNYPYPSSRWLARRFQMKKHRIIKRFRFRRYKLAAVANLPFAKMIRVGMLPELKSSKTKRGDVVDPTLSGQLVSAVKNTGEKRKGQRTRPKSKYQV,soluble
4,DSNLLLKLGMLTGRIVPDNQAVYAKDFKPESILGASNLSFRGNVNISEGQSADVVFLNADNGILVQDLPFEVKLKKFHIDFYNTGMPRDFASDIEVTDKATGEKLERTIRVNHPLTLHGITIYQASFADGGSDLTFKAWNLGDASREPVVLKATSIHQFPLEIGKHKYRLEFDQFTSMNVEDMSEGAEREKSLKSTLNDVRAVTQEGKKYTNIGPSIVYRIRDAAGQAVEYKNYMLPVLQEQDYFWITGTRSGLQQQYRWLRIPLDKQLKADTFMALREFLKDGEGRKRLVADATKGAPAEIREQFMLAAENTLNIFAQKGYLGLDEFITSNIPKEQQDKMQGYFYEMLYGVMNAALDETIRRYGLPEWQQDEARNRFLLHSMDAYTGLTEYPAPMLLQLDGFSEVRSSGLQMTRSP,not soluble
5,MGSDKIHHHHHHMIIMIPFKSMRDQAGLNRQHIFDLARLPPDLLAPLDLGQHERQLILLGHAGRLLWERVQKHATDPVHPIDSYTIGVVEQWAALALPHTRIRFVYPRGLPANRHVGLQRLGTLAGWHHPSPFMVGIDARWGSWFAYRAAIIVDSELPASPVEDHGHPCVDCTAKPCIGTCPASALDSGTMDMNACTASGSLKPRPARTAAWRDRPAL,not soluble
6,LVLQLQINRNPVLFDFNLQLKTNNFANQTSFDELFNEKTNPLNWQFFSKLKVNHLVYEGNDITQLANTLLQSQFNVLQLDLNKSIYRLNLNAMAQRFEHDWVQPLYAKRTQAKIAY,not soluble
7,MGSDKIHHHHHHMLSTTNLTMQFGAKALFENVSVEFGNGNRYGLIGANGSGKTTLMKILGGDLEPSSGHVSLSSGERLGKLRQDQFAFEECTVLDTVIMGHAELWRVKQERDRLYALPEMTDEEGMAVAHVEVEFAELGGYAAESRAGELLSGVGIPLEQHSGLMSAVSPGWKLRVLLAQALFADPDILLLDEPTNNLDIHTIQWLEELISNLNSTVIIISHDRHFLNSVCTHMADLDYGELRIYPGNYDEYMQASTLVRDQLLADNDKKKEKMAELQGFVSRFSANASKAKQATSRARQLEKIQLAEVKPSSRQNPYLVFNQERKLYRNALDGKDLSKSFGDLRLFHKMRLHVEAGERIAIIGSNGLGKTTLLRCLMGELTTDAGEIKWAENARIGYFAQDYAPEFAEDMTLFDWMCQWRGERDDDQVIRGVLGRLLFGQDQVNRSVKVLSGGEKGRMLFGKLTLQKPNVLILDEPTNHLDMESIESLNSALEKYDGTLLFVSHDRAFVSSLATRIIEFTPRGIQDFKGTYEDYLRSQGMG,not soluble
8,MGSDKIHHHHHHMKEVFDLRGRVALVTGGSRGLGFGIAQGLAEAGCSVVVASRNLEEASEAAQKLTEKYGVETMAFRCDVSNYEEVKKLLEAVKEKFGKLDTVVNAAGINRRHPAEEFPLDEFRQVIEVNLFGTYYVCREAFSLLRESDNPSIINIGSLTVEEVTMPNISAYAASKGGVASLTKALAKEWGRYGIRVNVIAPGWYRTKMTEAVFSDPEKLDYMLKRIPLGRTGVPEDLKGVAVFLASEEAKYVTGQIIFVDGGWTAN,soluble
9,MSEFEGWIKWLEPVFLLWKPEDPGYERPAYRDWTKEEDEPKYSPEKELALLDKQILASDGFDIDFTHFRCVFNYHLAYLDSHEFVDEPETTRDLLERLSRKALDDYNQESVVKANFHFCCAIMFLITFEVVDPYDNLIKLFQTRVRHAEDIVTEYVFCRPKPNQGVECIGVKNNDGKDVQTNVKEQEIPCMYGWFLRVITITFTLQIGVGASICHKE,soluble
10,MSLKAKYVWVALLALTFFGCDDNTGTIGWDMLPDSDQNINGRYTTYELTTNSDLSGPVFAKTSVGYVGKFTDKEFGEYEASFLAQLNSPDGISFPSVYDPETNPKGVMAGDSIHTAELILYYKSYFGDSINPCRMTVYELDENLTQNYYTDIDPLKYYNPNNLLARKAYTAVDQSLSDSIRNSDDFYPNVRLTSEEITKLGKRIYRLNRDHPEYFKTSEAFINNVFKGIYAKNDYGNGTILYVDQINLNVVIRCHEKDSLGNNLKKKNGADSLYYTTRTFATTKEVIQANKFVNSEKLNEIAKKTDCTYLKSPAGIFTQATLPINKIYEELSHDTINAVKLTFNSYNQPDNGKFSMKAPTYVLLLREKERQSFFEENKLTDNITSYLAVHNAIISNKPTTNQYVFTNLTRLINACVNEKQEAKKKAGDSWNEAAWEAANPDWNKVVLIPVLVQYDSSSNKNMISIQHDLQPGYVKLEGGPDGTKLKLEVTYTNFNGKEGHHHHHH,not soluble
11,MIKGGGGKSSGYSADLMVCFPSRAHLSLPSKSISSPSSSFNRRQNAPHHRRSISKLSSSGGGVRQNRGGGREVVEEPTSPKVTCAGQIKVRSSKRDGGGKNWQSLMAEIEKIHRSKSESKFFGIKRDVMGFLTCLRDFDFRCFGAFPPVDIISDDEEEDEEEEEEDEEEDEDESSGTVFSKWLMVLHEKQNNEECVDGKENVFSDVETAVPPPNALLLMRCRSAPVKNWSEEKKEETEEGDNRVKQSGEEEEEEKDRVGNKKDLRSLMEEEKKMNLVVMNYDTNYYKLSNDIAKETWVVGGIQDPLFRSRSWKK,not soluble
12,HRIDTKTAQKDKFGAGKNGFTRGNPQTGTPATDLDDDYFDMLQEELCSVVEASGASLEKGRHDQLLTALRALLLSRKNPFGDIKSDGTVQTALENLGLGEGAKLNAATATLGRTGFIAIPVMIGGIEQSVIIQWGWNAAKASASGGDGNTVVFPVAFNNACVAVVANYDNVSAPINAVATGGYTTTSFLLRCAAQTGSYYYNWIAIGY,not soluble
13,MAHHHHHHMDKYGDRKLQEGIYKLNNKKIKGYIPFQSASSIIPKQIRDKGIIEVMKELEKREEELNEKTKNDQEKHKVNKMNLFKSNSMNVKRKHVFSSFKIPRKI,soluble
14,MQEYTNHSDTTFALRNISFRVPGRTLLHPLSLTFPAGKVTGLIGHNGSGKSTLLKMLGRHQPPSEGEILLDAQPLESWSSKAFARKVAYLPQQLPPAEGMTVRELVAIGRYPWHGALGRFGAADREKVEEAISLVGLKPLAHRLVDSLSGGERQRAWIAMLVAQDSRCLLLDEPTSALDIAHQVDVLALVHRLSQERGLTVIAVLHDINMAARYCDYLVALRSGEMIAQGTPAEIMRGETLEMIYGIPMGILPHPAGAAPVSFVY,not soluble
15,MKVDVEVLRNFEERLNPAKPENIKIIGYGEISTVFELPELPGIALKRIPNFKSVEQVKRYIEVYFEYIELLEGAGLRVPDSDATFVERRDGKTVLYIAQKMVGNVGNKVIQTAKADEAEEVFGRVLAEMKKVWDFNAERREEGLEIGIDGQISNWAIMEEIYYFDTSTPMIRKNGIHQLDTEVFLQACPPGIRILLKKIFLQDILDRYFDFRKVVVDMIANLYKEGREDLIPIAINLANEFFKLNGYDFEAITAKEVEKYYKEDAFIWSLYLNLRKVHRFILTKALFGRYEYILPGKIRR,not soluble
16,MNTVPFTSAPIEVTIGIDQYSFNVKENQPFHGIKDIPIGHVHVIHFQHADNSSMRYGYWFDCRMGNFYIQYDPKDGLYKMMEERDGAKFENIVHNFKERQMMVSYPKIDEDDTWYNLTEFVQMDKIRKIVRKDENQFSYVDSSMTTVQENELLKSSLQKAGSKMEAKNEDDPAHSLNYTVINFKSREAIRPGHEMEDFLDKSYYLNTVMLQGIFKNSSNYFGELQFAFLNAMFFGNYGSSLQWHAMIELICSSATVPKHMLDKLDEILYYQIKTLPEQYSDILLNERVWNICLYSSFQKNSLHNTEKIMENKYPELLGKDNEDDALIYGISDEERDDEDDEHNPTIVGGLYYQRP,soluble
17,MSLTLRIALFGAGRIGHVHAANIAANPDLELVVIADPFIEGAQRLAEANGAEAVASPDEVFARDDIDGIVIGSPTSTHVDLITRAVERGIPALCEKPIDLDIEMVRACKEKIGDGASKVMLGFNRRFDPSFAAINARVANQEIGNLEQLVIISRDPAPAPKDYIAGSGGIFRDMTIHDLDMARFFVPNIVEVTATGANVFSQEIAEFNDYDQVIVTLRGSKGELINIVNSRHCSYGYDQRLEAFGSKGMLAADNIRPTTVRKHNAESTEQADPIFNFFLERYDAAYKAELATFAQGIRDGQGFSPNFEDGVIALELANACLESAQTGRTVTLNPANEGHHHHHH,soluble
18,MGSDKIHHHHHHMLSVFVVNLRSNSAPFSFSRLLMHTTIVNERSLRTCNFPITLQDIRTLKELYRLKAETRDLRKPIVRNIMKQRVVGKGCLESLKNALYSLETIYIDDYTGQRLLRIDGMKQIEVDLTYEIRELQKDIYYLEYGEDRFIEYLAKFIPGFTDYVTEGVEMLRGKSFNAFITDRDGTTNNYCGRYRSSIQPIYNSVFLSRFAKNCCRYPMIVTSAPLKDFGILNVSINPEHIFVYAGSKGREFIDIDGQFHSFPIEPGKQELIRLLNERMQLLLLDPSFEKFNFIGSALQMKFGQTTIARQDITRSVNEAESAAFLEKIKGIVRDIDPEGKNFRIEDTGLDIEIILTIDVDPKTGMIRDFDKGDGLEFICRKMNIDHTGEPVLVCGDTSSDIPMLKKAMEMYDDVWAIFVTRDEKLMQRVREICPKSYMVPYPDILLTILGLLSL,not soluble
19,MKKSYLVTPLVAGALILPAALPATAAQASAPAPAAVSTVNKTALTTDQIKAERSALNSRINMLQETQKAIPGSQYADQIEDLIKTALDLSGAIDTIAHGGVPAYDPATIVPRIHLAIDAADAIKTGNTTLQHKVKKAHVELGLEIAKASIVAINPASSVAQVQDEIKALKARIDKVSAYPDLSKDDTATIAYKQTLRKTIHEVRVGRNKNIVGKKDQAVVDTLNKEISKADKVRANAKSTVAQVDTAVDQLRAAYQTALNAPDKAKKLEHHHHHH,not soluble
